Drawing on US20090288225A1, “Novel Aromatic Acyltransferase Genes” (Aomori Prefecture, priority 2006, published 2009), this text covers specific activity and glucosyltransferase activity for two molecules.

The nature of series [1]: Acyltransferase activity of purified 3′AT, substrates preternatin C5 and 1-O-p-coumaroyl-β-D-glucose. The series is classed as biochemical, butterfly pea (Clitoria ternatea). Particulars: 3′AT activity. As for the experimental part: A reaction solution (20 μl) containing 100 mM phosphate buffer (pH 6.5), 0.4 mM anthocyanin (4 μl), 0.5 mM 1-O-acyl-β-D-glucose (4 μl) and an enzyme solution (8 μl) was reacted at 30° C. The reaction was terminated by adding 4 μl of 1M aqueous hydrochloric acid solution. After addition of 24 μl of 5% acetonitrile containing 0.05 M TFA, the reaction solution was filtered with Millex-LH filter (Millipore) and then analyzed by HPLC by feeding a 10 μl aliquot.
HPLC analysis of anthocyanin acyltransferase reaction products were performed with Develosil ODS-UG-5 column (3.0 i.d.×250 mm; Nomura Chemical) at a column temperature of 35° C. Against an initial solvent that was 0.05 M trifluoroacetate (TFA)-containing 5% acetonitrile (MeCN) aqueous solution, 0.05 M TFA-containing 40% MeCN was added with a linear concentration gradient from 14 to 86% (20 min) and the reaction products were eluted at a flow rate of 0.5 ml/min. The reaction products were detected with PDA and their molecular weights were confirmed by LC-MS/MS. […]

Series [2] in a line: UDP-glucose:hydroxycinnamate 1-O-glucosyltransferase activity of recombinant proteins from E. coli. The format is biochemical. As to conditions: against all four types of hydroxycinnamic acid used. As for the experimental part: The transformed E. coli was shaking-cultured overnight in 3 ml of LB medium containing 50 μg/ml kanamycin and 34 μg/ml chloramphenicol. This culture broth (500 μl) was inoculated into LB medium (50 ml) and shaking-cultured until absorbance at 600 nm reached 0.4. Then, isopropyl-β-D-thiogalactoside (IPTG) was added to give a final concentration of 0.4 mM. The cells were shaking-cultured at 25° C. for 16 hr and then harvested by refrigerated centrifugation (8000 rpm, 4° C., 20 min). CtGT11-4 protein was partially purified from the cells using Ni-NTA mini-column according to the method recommended by the manufacturer. […]
For measuring enzyme activity, a 30 μl reaction solution containing 100 mM potassium phosphate buffer (pH 7.4), 30 pmole of UDP-glucose, 30 pmole of hydroxycinnamic acid and 15 μl of recombinant protein solution was reacted at 30° C. […] The enzyme reaction products were analyzed by reversed-phase high performance liquid chromatography (Shiseido NanoSpace system) using Develosil C30-UG-5 (1.5 i.d.×250 mm). […] The eluted materials were detected with a PDA detector, and the resultant data were analyzed to thereby quantitatively determine 1-O-acyl-β-D-glucose. […]
LeGT13-20 and LeGT13-30 genes were expressed using pET30Ek/LIC System (Novagen). […] Resultant several clones were analyzed to confirm the nucleotide sequences thereof, and then transformed into E. coli BL21-CodonPlus(DE3)-RP. […]

B1: 3′AT protein: acyltransferase purified from butterfly pea petals, transfers aromatic acyl group to glucosyl group at position 3′ of anthocyanin (after Mono Q) (protein)
chain: GTIVEFLPGFDGPLPFVLETGYVGVGEGEDVQVFYYFVESENNPNEDPLMLWLTGGPGCSAFSGLALEIGPLIFKREEYNGGLPNLILRPHSWTKVSSIIFVDLPVSTGFTYARTDAAAQRSDWTLVHHAHEFLRKWLIDHPKFLQNELYIGGDSYSGIPIPVIVQEISQENEKGIQPWINLQGYILGNAITTRREKGYSIPFAHGMALISDELYESLRKNCKGEYLNVDPENVLCSRDIDSYSKATSRISFAHILERTCNSGDIKTSLRRSTIQRHHTKKFLNTNLKLPPLTCRTYANFQCGLWANDDNVRSALHIHKGSIGEWHRCSIRLPFTSDIPNSFEYHVNLSRKGYYRSLIYSGDHDMMVPFLGTQAWIRSLNYSIVDDWRPWNTNGQVAGYTRTYSNRMTYATIKGGGHTAPEFKPEECFAMYSRWISKRPLYENNTMSSYTNLASIL
In turn, B1 yielded a specific activity in series [1] of 1492.6 pkat/mg.

B2: LeGT13-30: lobelia 1-O-acyl-β-D-glucose synthase, 486 amino acid residues, SEQ ID NO: 18 (protein)
chain: MGSLQGTTTVENLTHVFLVSFPGQGHVNPLLRLGKILASKGLLVTFSAPEMVGEIIKGANKYISDDELTPIGDGMIRFEFFSDSLGNTKEDNALRGNMDLYMPQLATFAKKSLSDILVKHQHHGRPVACLINNPFIPWISELAEEFNIPSAVLWVQSCASFSAYYHYHHNLVPFPTENEPERDVQLPSMPLLKYDEIPGFLLPSSPYGFLRRAILGQFKLLSKPICILVESFQELEDDCINYLSTLCPIKPIGPLFINPNVKTGSSIRGDFMKVEDCIDWLNTRADSSVVYISFGSIVYVKQEQITEIARGLADSGLSFLWAFKQPGVDMGLKPPSLPDGFLEEVKGRGKVVEWCSQEAVLGHPAVSCFMSHCGWNSTMEALSSGVPVAAFPIWGDQVTDAKFLVDEFKVGIRMCRGEADINKKVVPREEIARCLLAATSGPKAEELRRNALKWKKAAADSVGAGGSSDRNLEEFVGSIKKGVIGH
modifications: Lobelia erinus cv.Riviera Midnight Blue; Amino acid sequence of UDP-glucose hydroxycinnamic acid 1-O-glucosyltransferase
For the molecule B2, the glucosyltransferase activity entry in series [2] is “glucosyltransferase activity was confirmed”.
